Measurements: article PMC6555819, “Comprehensive study of nuclear receptor DNA binding provides a revised framework for understanding receptor specificity”

Experiments:
Test in all cases: no ligand; PBM; 270 nM : 90 nM RXRa; PBS pH 7.4, 2% milk, 0.02% Triton X-100, 1 mM DTT, BSA, 0.4 mg/ml salmon testes DNA
LXRa:RXRa = LXRa:RXRa (Homo sapiens, UniProt Q13133;P19793 full;full); conditions: tags: His kept;His cleaved; copies: 1;1; label: surface-attached array probe
Summary of the method: (§1)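 Binding buffer was PBS pH 7.4 with 2% milk, 0.02% Triton X-100, 1 mM DTT, 0.2 mg/mL BSA and 0.4 mg/ml salmon testes DNA. In it, ligand-free nuclear receptor dimers were incubated 1 h on custom Agilent 4×180K protein-binding microarrays carrying double-stranded probes. Antibodies against each partner (one per run) detected binding, and z-scores were calculated against random background probes after regression normalization of scanned fluorescence.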

VDR:RXRa = VDR:RXRa (Homo sapiens, UniProt P11473;P19793 full;full); conditions: tags: His kept;His cleaved; copies: 1;1; label: surface-attached array probe
Summary of the method: as §1

LXRb:RXRa = LXRb:RXRa (Homo sapiens, UniProt P55055;P19793 full;full); conditions: tags: His kept;His cleaved; copies: 1;1; label: surface-attached array probe
Summary of the method: as §1

FXR:RXRa = FXR:RXRa (Homo sapiens, UniProt Q96RI1;P19793 full;full); conditions: tags: His kept;His cleaved; copies: 1;1; label: surface-attached array probe
Summary of the method: as §1

PPARa:RXRa = PPARa:RXRa (Homo sapiens, UniProt Q07869;P19793 full;full); conditions: tags: GST kept;His cleaved; copies: 1;1; label: surface-attached array probe
Summary of the method: as §1

RARg:RXRa = RARg:RXRa (Homo sapiens, UniProt P13631;P19793 full;full); conditions: tags: His kept;His cleaved; copies: 1;1; label: surface-attached array probe
Summary of the method: as §1

Chain of VDR:RXRa (P11473 whole entry, chain 1 of 2): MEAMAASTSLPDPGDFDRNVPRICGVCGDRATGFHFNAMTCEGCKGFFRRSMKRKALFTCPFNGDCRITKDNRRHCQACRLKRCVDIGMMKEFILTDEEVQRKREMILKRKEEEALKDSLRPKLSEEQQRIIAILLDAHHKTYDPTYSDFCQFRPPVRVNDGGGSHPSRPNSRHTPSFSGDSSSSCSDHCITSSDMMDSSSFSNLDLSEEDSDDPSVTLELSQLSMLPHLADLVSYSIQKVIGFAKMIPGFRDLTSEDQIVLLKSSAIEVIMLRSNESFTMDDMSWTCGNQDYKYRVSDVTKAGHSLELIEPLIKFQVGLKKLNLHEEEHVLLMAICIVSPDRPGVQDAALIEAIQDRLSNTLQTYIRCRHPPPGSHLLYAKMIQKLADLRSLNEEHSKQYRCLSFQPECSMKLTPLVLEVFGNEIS
Chain of VDR:RXRa (P19793 whole entry, chain 2 of 2): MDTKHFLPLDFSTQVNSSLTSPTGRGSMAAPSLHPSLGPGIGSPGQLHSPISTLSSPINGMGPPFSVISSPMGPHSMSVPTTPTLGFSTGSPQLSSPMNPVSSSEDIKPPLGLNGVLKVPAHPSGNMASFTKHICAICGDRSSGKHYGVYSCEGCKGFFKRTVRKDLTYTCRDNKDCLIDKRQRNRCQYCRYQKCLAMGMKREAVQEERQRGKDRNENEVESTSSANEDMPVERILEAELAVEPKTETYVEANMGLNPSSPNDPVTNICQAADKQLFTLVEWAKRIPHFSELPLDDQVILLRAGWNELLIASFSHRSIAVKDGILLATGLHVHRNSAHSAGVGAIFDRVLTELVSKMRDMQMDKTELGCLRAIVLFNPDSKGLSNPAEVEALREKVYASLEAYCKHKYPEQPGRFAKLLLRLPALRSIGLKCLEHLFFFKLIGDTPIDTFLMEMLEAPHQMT
Chain of LXRa:RXRa (Q13133 whole entry, chain 1 of 2): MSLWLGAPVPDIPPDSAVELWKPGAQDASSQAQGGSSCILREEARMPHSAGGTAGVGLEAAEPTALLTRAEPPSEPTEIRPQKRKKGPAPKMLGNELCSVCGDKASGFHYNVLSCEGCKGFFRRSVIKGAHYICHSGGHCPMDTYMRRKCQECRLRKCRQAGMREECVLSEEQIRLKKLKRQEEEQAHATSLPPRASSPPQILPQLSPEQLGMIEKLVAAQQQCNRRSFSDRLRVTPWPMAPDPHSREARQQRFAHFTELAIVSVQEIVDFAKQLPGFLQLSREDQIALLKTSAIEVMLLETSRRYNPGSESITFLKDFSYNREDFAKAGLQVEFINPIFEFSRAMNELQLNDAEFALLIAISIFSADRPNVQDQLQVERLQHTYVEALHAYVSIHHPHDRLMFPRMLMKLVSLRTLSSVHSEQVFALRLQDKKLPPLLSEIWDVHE
Chain of LXRa:RXRa (P19793 whole entry, chain 2 of 2): as the sequence (P19793 whole entry, chain 2 of 2) above
Chain of LXRb:RXRa (P55055 whole entry, chain 1 of 2): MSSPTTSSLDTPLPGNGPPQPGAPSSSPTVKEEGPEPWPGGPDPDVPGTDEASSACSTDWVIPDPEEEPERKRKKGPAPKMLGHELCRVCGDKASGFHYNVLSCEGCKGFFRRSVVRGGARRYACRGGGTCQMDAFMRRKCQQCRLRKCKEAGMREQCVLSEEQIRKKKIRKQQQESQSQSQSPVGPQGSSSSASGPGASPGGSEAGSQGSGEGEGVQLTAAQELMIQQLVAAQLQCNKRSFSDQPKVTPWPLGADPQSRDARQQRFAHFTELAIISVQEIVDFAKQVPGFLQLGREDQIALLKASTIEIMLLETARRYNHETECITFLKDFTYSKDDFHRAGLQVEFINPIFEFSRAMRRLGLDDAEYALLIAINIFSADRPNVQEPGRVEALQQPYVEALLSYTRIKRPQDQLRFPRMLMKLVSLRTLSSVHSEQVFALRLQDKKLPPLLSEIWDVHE
Chain of LXRb:RXRa (P19793 whole entry, chain 2 of 2): as the sequence (P19793 whole entry, chain 2 of 2) above
Chain of FXR:RXRa (Q96RI1 whole entry, chain 1 of 2): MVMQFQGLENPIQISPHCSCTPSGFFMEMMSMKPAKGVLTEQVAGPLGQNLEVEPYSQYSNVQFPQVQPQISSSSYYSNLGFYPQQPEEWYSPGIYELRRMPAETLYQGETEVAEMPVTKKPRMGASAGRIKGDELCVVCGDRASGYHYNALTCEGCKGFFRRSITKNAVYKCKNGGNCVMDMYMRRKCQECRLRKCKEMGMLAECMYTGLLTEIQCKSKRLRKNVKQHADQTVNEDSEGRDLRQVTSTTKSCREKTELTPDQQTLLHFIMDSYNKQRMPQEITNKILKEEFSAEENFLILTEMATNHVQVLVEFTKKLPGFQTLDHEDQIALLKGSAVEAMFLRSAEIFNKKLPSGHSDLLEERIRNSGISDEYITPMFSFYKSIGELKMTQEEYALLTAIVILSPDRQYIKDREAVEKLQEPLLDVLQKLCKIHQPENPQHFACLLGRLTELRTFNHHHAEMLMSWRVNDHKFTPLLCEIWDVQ
Chain of FXR:RXRa (P19793 whole entry, chain 2 of 2): as the sequence (P19793 whole entry, chain 2 of 2) above
Chain of PPARa:RXRa (Q07869 whole entry, chain 1 of 2): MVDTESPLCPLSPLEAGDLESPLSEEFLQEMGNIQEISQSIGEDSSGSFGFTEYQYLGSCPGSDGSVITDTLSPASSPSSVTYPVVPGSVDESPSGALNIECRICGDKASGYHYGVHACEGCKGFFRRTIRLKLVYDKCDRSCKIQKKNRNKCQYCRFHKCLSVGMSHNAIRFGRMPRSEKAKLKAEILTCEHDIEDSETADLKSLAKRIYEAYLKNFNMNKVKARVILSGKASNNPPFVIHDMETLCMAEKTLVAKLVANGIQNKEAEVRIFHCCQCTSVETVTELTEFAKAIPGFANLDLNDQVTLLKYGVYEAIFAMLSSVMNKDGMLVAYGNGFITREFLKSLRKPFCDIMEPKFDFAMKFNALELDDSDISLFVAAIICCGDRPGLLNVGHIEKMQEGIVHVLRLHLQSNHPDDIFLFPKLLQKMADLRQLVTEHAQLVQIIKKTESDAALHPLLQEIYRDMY
Chain of PPARa:RXRa (P19793 whole entry, chain 2 of 2): as the sequence (P19793 whole entry, chain 2 of 2) above
Chain of RARg:RXRa (P13631 whole entry, chain 1 of 2): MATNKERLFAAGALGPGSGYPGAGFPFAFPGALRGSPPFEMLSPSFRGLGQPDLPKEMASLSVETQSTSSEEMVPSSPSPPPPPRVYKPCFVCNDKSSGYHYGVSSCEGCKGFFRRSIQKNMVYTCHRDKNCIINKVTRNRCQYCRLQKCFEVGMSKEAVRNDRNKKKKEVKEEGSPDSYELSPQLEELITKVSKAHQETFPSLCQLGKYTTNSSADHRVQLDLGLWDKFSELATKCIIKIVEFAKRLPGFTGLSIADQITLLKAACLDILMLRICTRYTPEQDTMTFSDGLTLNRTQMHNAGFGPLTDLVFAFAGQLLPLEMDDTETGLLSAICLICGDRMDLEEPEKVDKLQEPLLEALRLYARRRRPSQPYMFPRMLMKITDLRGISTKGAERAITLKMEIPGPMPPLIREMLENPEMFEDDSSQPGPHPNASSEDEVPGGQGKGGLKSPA
Chain of RARg:RXRa (P19793 whole entry, chain 2 of 2): as the sequence (P19793 whole entry, chain 2 of 2) above

Row | Binder | binding signal (LXRa:RXRa) | binding signal (VDR:RXRa) | binding signal (LXRb:RXRa) | other results
1 | NRC3_wobSeed97_DR4_G16A_o1 (dsDNA) DNA 1: GCCAAACTAGGTCACAAAAGGTCAAAGTCGAATGACGCGATTGACAGCGTAGAATGAAGG DNA 2: CCTTCATTCTACGCTGTCAATCGCGTCATTCGACTTTGACCTTTTGTGACCTAGTTTGGC | 8.65 PBM z-score against 500 random probes |  |  | 
2 | NRC3_wobSeed104_DR4_A11G_o1 (dsDNA) DNA 1: GCTCTTGTAGGTCAATAGAGGTTAAGAAAGTGCGCTGCGATTGACAGCGTAGAATGAAGG DNA 2: CCTTCATTCTACGCTGTCAATCGCAGCGCACTTTCTTAACCTCTATTGACCTACAAGAGC | 7.01 PBM z-score against 500 random probes |  |  | 
3 | NRC3_wobSeed116_DR4_C16T_o1 (dsDNA) DNA 1: GCAGAATGAGGTTACTAAAGATCAGGGAAACGCTTGGCGATTGACAGCGTAGAATGAAGG DNA 2: CCTTCATTCTACGCTGTCAATCGCCAAGCGTTTCCCTGATCTTTAGTAACCTCATTCTGC | 8.1 PBM z-score against 500 random probes |  |  | 
4 | NRC3_wobSeed116_DR4_A9G_o1 (dsDNA) DNA 1: GCAGAATGGGGTTACCAAAGATCAGGGAAACGCTTGGCGATTGACAGCGTAGAATGAAGG DNA 2: CCTTCATTCTACGCTGTCAATCGCCAAGCGTTTCCCTGATCTTTGGTAACCCCATTCTGC | 7.02 PBM z-score against 500 random probes |  |  | 
5 | NRC3_wobSeed45_DR1_G4A_o1 (dsDNA) DNA 1: GCTATCAAAGTTCAAAGGTAACGTAAGTATCCACACGCGATTGACAGCGTAGAATGAAGG DNA 2: CCTTCATTCTACGCTGTCAATCGCGTGTGGATACTTACGTTACCTTTGAACTTTGATAGC | 7.29 PBM z-score against 500 random probes |  |  | 
6 | NRC3_wobSeed64_DR2_G5C_o1 (dsDNA) DNA 1: GCTACCCTAGGTCATTGGGCCAGTATAGTACGCATCGCGATTGACAGCGTAGAATGAAGG DNA 2: CCTTCATTCTACGCTGTCAATCGCGATGCGTACTATACTGGCCCAATGACCTAGGGTAGC | 6.89 PBM z-score against 500 random probes |  |  | 
7 | NRC3_wobSeed105_DR4_A13T_o1 (dsDNA) DNA 1: GCATCTCTAGGTTAAGATAGTTCAGTGAATGCAAATGCGATTGACAGCGTAGAATGAAGG DNA 2: CCTTCATTCTACGCTGTCAATCGCATTTGCATTCACTGAACTATCTTAACCTAGAGATGC | 6.81 PBM z-score against 500 random probes |  |  | 
8 | NRC3_wobSeed113_DR4_G19A_o1 (dsDNA) DNA 1: GCATATGTAGGTTAGCTGAGGTCATTCAGACTAGGCGCGATTGACAGCGTAGAATGAAGG DNA 2: CCTTCATTCTACGCTGTCAATCGCGCCTAGTCTGAATGACCTCAGCTAACCTACATATGC | 6.64 PBM z-score against 500 random probes |  |  | 
9 | NRC3_wobSeed136_DR5_G5C_o1 (dsDNA) DNA 1: GCTACCCTAGGTCATTCAGGGGCCAGTATAGAAAGCGCGATTGACAGCGTAGAATGAAGG DNA 2: CCTTCATTCTACGCTGTCAATCGCGCTTTCTATACTGGCCCCTGAATGACCTAGGGTAGC | 6.72 PBM z-score against 500 random probes |  |  | 
10 | NRC3_wobSeed117_DR4_A18G_o1 (dsDNA) DNA 1: GCCGTCAAAGTTCAACTGAGGTAACGTAAAGCACGCGCGATTGACAGCGTAGAATGAAGG DNA 2: CCTTCATTCTACGCTGTCAATCGCGCGTGCTTTACGTTACCTCAGTTGAACTTTGACGGC | 6.87 PBM z-score against 500 random probes |  |  | 
11 | NRC3_random_hg19_332_o1 (dsDNA) DNA 1: GCTTGTCCTCAGCCTCCTGAGCAGCTGGGACTATAGGCGATTGACAGCGTAGAATGAAGG DNA 2: CCTTCATTCTACGCTGTCAATCGCCTATAGTCCCAGCTGCTCAGGAGGCTGAGGACAAGC |  | -1.03 PBM z-score against 500 random probes | -1.23 PBM z-score against 500 random probes | binding signal (FXR:RXRa): -0.13 PBM z-score against 500 random probes
12 | NRC3_random_hg19_263_o1 (dsDNA) DNA 1: GCGCTGGGTAGATCTGCCACTGAAGCCTACATGGAGGCGATTGACAGCGTAGAATGAAGG DNA 2: CCTTCATTCTACGCTGTCAATCGCCTCCATGTAGGCTTCAGTGGCAGATCTACCCAGCGC |  | -0.87 PBM z-score against 500 random probes | -1.05 PBM z-score against 500 random probes | 
13 | NRC3_random_hg19_183_o1 (dsDNA) DNA 1: GCGAGGACAGAGTAGATCAACCTTTCCTACCTCTAAGCGATTGACAGCGTAGAATGAAGG DNA 2: CCTTCATTCTACGCTGTCAATCGCTTAGAGGTAGGAAAGGTTGATCTACTCTGTCCTCGC |  | 0.02 PBM z-score against 500 random probes | -0.11 PBM z-score against 500 random probes | 
14 | NRC3_wobSeed49_DR2_G11T_o1 (dsDNA) DNA 1: GCCAAACTAGTTCAAGAGGTCAAAGTCCGCTTCCCGGCGATTGACAGCGTAGAATGAAGG DNA 2: CCTTCATTCTACGCTGTCAATCGCCGGGAAGCGGACTTTGACCTCTTGAACTAGTTTGGC | 6.74 PBM z-score against 500 random probes |  |  | 
15 | NRC3_random_hg19_373_o1 (dsDNA) DNA 1: GCTGCCACAGAGGATACTGTGACGTTATGCATCACTGCGATTGACAGCGTAGAATGAAGG DNA 2: CCTTCATTCTACGCTGTCAATCGCAGTGATGCATAACGTCACAGTATCCTCTGTGGCAGC |  | -0.23 PBM z-score against 500 random probes | -0.59 PBM z-score against 500 random probes | 
16 | NRC3_wobSeed114_DR4_G9A_o1 (dsDNA) DNA 1: GCAATACAAGGTCATCGTAGGCCAGAGTACGCACAGGCGATTGACAGCGTAGAATGAAGG DNA 2: CCTTCATTCTACGCTGTCAATCGCCTGTGCGTACTCTGGCCTACGATGACCTTGTATTGC | 7.16 PBM z-score against 500 random probes |  |  | 
17 | NRC3_wobSeed42_DR1_G9A_o1 (dsDNA) DNA 1: GCTATACAAGGTCAAAGGCCAGAGTACGAATGTCGAGCGATTGACAGCGTAGAATGAAGG DNA 2: CCTTCATTCTACGCTGTCAATCGCTCGACATTCGTACTCTGGCCTTTGACCTTGTATAGC | 7.02 PBM z-score against 500 random probes |  |  | 
18 | NRC3_random_hg19_83_o1 (dsDNA) DNA 1: GCGCTGTACATGATGTGGCCTCCCAGCCCAGGATCTGCGATTGACAGCGTAGAATGAAGG DNA 2: CCTTCATTCTACGCTGTCAATCGCAGATCCTGGGCTGGGAGGCCACATCATGTACAGCGC |  | -0.48 PBM z-score against 500 random probes | -0.83 PBM z-score against 500 random probes | binding signal (PPARa:RXRa): -0.53 PBM z-score against 500 random probes
19 | NRC3_random_hg19_480_o1 (dsDNA) DNA 1: GCGAGAATGGTCAGTACATTCAACCATGAATTCAAGGCGATTGACAGCGTAGAATGAAGG DNA 2: CCTTCATTCTACGCTGTCAATCGCCTTGAATTCATGGTTGAATGTACTGACCATTCTCGC |  | 0.03 PBM z-score against 500 random probes | -0.32 PBM z-score against 500 random probes | 
20 | NRC3_wobSeed86_DR3_o1 (dsDNA) DNA 1: GCGCTGCTAGGTCAGGTTGGTCAGCTAACGGGTACGGCGATTGACAGCGTAGAATGAAGG DNA 2: CCTTCATTCTACGCTGTCAATCGCCGTACCCGTTAGCTGACCAACCTGACCTAGCAGCGC |  | 0.5 PBM z-score against 500 random probes | 0.46 PBM z-score against 500 random probes | 
21 | NRC3_wobSeed109_DR4_A19G_o1 (dsDNA) DNA 1: GCCGTCCAAGGTCATAGGGGGTCAGTGAAGACAGATGCGATTGACAGCGTAGAATGAAGG DNA 2: CCTTCATTCTACGCTGTCAATCGCATCTGTCTTCACTGACCCCCTATGACCTTGGACGGC |  | 7.46 PBM z-score against 500 random probes | 7.12 PBM z-score against 500 random probes | binding signal (FXR:RXRa): 8.21 PBM z-score against 500 random probes; binding signal (RARg:RXRa): 7.6 PBM z-score against 500 random probes
22 | NRC3_wobSeed73_DR3_A5C_o1 (dsDNA) DNA 1: GCCACACTAGGTCACAGAGGTCAAAGTCCGTGCGTAGCGATTGACAGCGTAGAATGAAGG DNA 2: CCTTCATTCTACGCTGTCAATCGCTACGCACGGACTTTGACCTCTGTGACCTAGTGTGGC | 7.06 PBM z-score against 500 random probes |  |  | 
23 | NRC3_wobSeed93_DR3_G25A_o1 (dsDNA) DNA 1: GCAGTCAAAGTTCATCTAGGTAACATAAGATATGCTGCGATTGACAGCGTAGAATGAAGG DNA 2: CCTTCATTCTACGCTGTCAATCGCAGCATATCTTATGTTACCTAGATGAACTTTGACTGC | 6.61 PBM z-score against 500 random probes |  |  | 
24 | NRC3_wobSeed101_DR4_G27T_o1 (dsDNA) DNA 1: GCCCTTACGGGTCACTCCAGGTTATATCATCGGAGTGCGATTGACAGCGTAGAATGAAGG DNA 2: CCTTCATTCTACGCTGTCAATCGCACTCCGATGATATAACCTGGAGTGACCCGTAAGGGC | 8.05 PBM z-score against 500 random probes |  |  | 
25 | NRC3_wobSeed100_DR4_T22G_o1 (dsDNA) DNA 1: GCCCTACTGGGCCACGAAAGGGCATTGATTCAGTGAGCGATTGACAGCGTAGAATGAAGG DNA 2: CCTTCATTCTACGCTGTCAATCGCTCACTGAATCAATGCCCTTTCGTGGCCCAGTAGGGC |  | 0.11 PBM z-score against 500 random probes | 0.15 PBM z-score against 500 random probes | 
26 | NRC3_wobSeed100_DR4_G16T_o1 (dsDNA) DNA 1: GCCCTACTGGGCCACTAAAGGTCATTGATTCAGTGAGCGATTGACAGCGTAGAATGAAGG DNA 2: CCTTCATTCTACGCTGTCAATCGCTCACTGAATCAATGACCTTTAGTGGCCCAGTAGGGC | 7.03 PBM z-score against 500 random probes |  |  | 
27 | NRC3_wobSeed100_DR4_T8G_o1 (dsDNA) DNA 1: GCCCTACGGGGCCACGAAAGGTCATTGATTCAGTGAGCGATTGACAGCGTAGAATGAAGG DNA 2: CCTTCATTCTACGCTGTCAATCGCTCACTGAATCAATGACCTTTCGTGGCCCCGTAGGGC | 6.67 PBM z-score against 500 random probes |  |  | 
